The supplement of paper PMC7877785
± gives the uncertainty stated by the source.

Assay: self-splicing fitness, log relative to wild type (ln ratio); higher = more splicing; Tetrahymena group I intron in knt gene, E. coli kanamycin selection, DiMSum; sequences stand for … in CUCUCU…GGAGGGAAAAGUUAUCAGGCAUGCACCUGGUAGCUAGUCUUUAAACCAAUAGAUUGCAUCGGUUUAAAAGGCAAGACCGUCAAAUUGCGGGAAAGGGGUCAACAGCCGUUCAGUACCAAGUCUCAGGGGAAACUUUGAGAUGGCCUUGCAAAGGGUAUGGUAAUAAGCUGACGGACAUGGUCCUAACCACGCAGCCAAGUCCUAAGUCAACAGAUCUUCUGUUGAUAUGGAUGCAGUUCACAGACUAAAUGUCGGUCGGGGAAGAUGUAUUCUUCUCAUAAGAUAUAGUCGGACCUCUCCUUAAUGGGAGCUAGCGGAUGAAGUGAUGCAACACUGGAGCCGCUGGGAACUAAUUUGUAUGCGAAAGUAUAUUGAUUAGUUUUGGAGUACUCGUGGUCG
Summary of the method: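 Library with all eight P1ex-region intron nucleotides randomised, intron inside the knt kanamycin-resistance gene on pET-22b(+), in E. coli BL21(DE3). Cells grew overnight at 37°C or 30°C on LB agar with or without 25 μg/mL kanamycin (plus 100 μg/mL carbenicillin, 50 μM IPTG, 0.2% rhamnose), in six replicate transformations. Pooled colonies were amplicon-sequenced on Illumina HiSeq 2500. DiMSum fitness is the error-weighted combination of wild-type-normalised replicate fold changes, kanamycin versus none.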

| Sequence | self-splicing fitness (ln) (30 °C) | self-splicing fitness (ln) (37 °C) |
| --- | --- | --- |
| UUAUAGCAAUAUUACGUGGU | -3.55 ± 0.35 | -3.15 ± 0.35 |
| AAUUAGCAAUAUUACGAAGU | -2.79 ± 0.21 | -1.05 ± 0.17 |
| CAGAAGCAAUAUUACGACAC | – | -2.1 ± 0.29 |
| UGUAAGCAAUAUUACGCCUU | -1.69 ± 0.35 | -1.5 ± 0.43 |
| UGACAGCAAUAUUACGCCAC | -3.66 ± 0.32 | -1.43 ± 0.27 |
| AUACAGCAAUAUUACGGCCG | -1.33 ± 0.16 | -1.14 ± 0.23 |
| UUGCAGCAAUAUUACGCACG | -1.2 ± 0.13 | -1.24 ± 0.12 |
| UGCCAGCAAUAUUACGCAAG | -3.07 ± 0.24 | -3.65 ± 0.46 |
| UCCCAGCAAUAUUACGAUUC | -4.67 ± 0.32 | -1.97 ± 0.14 |
| AUGGAGCAAUAUUACGGGUU | -2.3 ± 0.43 | -3.16 ± 0.4 |
| GAGGAGCAAUAUUACGUUCU | -2.2 ± 0.2 | -2.4 ± 0.33 |
| AGAGAGCAAUAUUACGGUUG | – | -1.45 ± 0.41 |
| CUGCAGCAAUAUUACGAACA | -3.3 ± 0.24 | -1.49 ± 0.14 |
| CCGCAGCAAUAUUACGCAUC | -3.93 ± 0.28 | -1.95 ± 0.22 |
| GUUGAGCAAUAUUACGUGGU | -3.25 ± 0.28 | – |
| GCCGAGCAAUAUUACGCUGU | -2.17 ± 0.14 | -1.57 ± 0.14 |
| AUUAAGCAAUAUUACGUAAU | -1.66 ± 0.11 | -0.745 ± 0.14 |
| UUAUAGCAAUAUUACGAUAC | – | -1.53 ± 0.27 |
| CGCCAGCAAUAUUACGAGGU | -4.39 ± 0.28 | -1.89 ± 0.18 |
| CCCAAGCAAUAUUACGCAAC | -3.16 ± 0.26 | -2.71 ± 0.38 |
| UAAUAGCAAUAUUACGUAGA | -3.52 ± 0.18 | -1.98 ± 0.17 |
| ACGCAGCAAUAUUACGAGUA | -3.72 ± 0.33 | -3.07 ± 0.27 |
| GCGAAGCAAUAUUACGUUCU | -1.93 ± 0.11 | -0.859 ± 0.11 |
| UCACAGCAAUAUUACGAGUC | -2.97 ± 0.15 | -3.01 ± 0.2 |
| GACGAGCAAUAUUACGGCCU | -1.85 ± 0.096 | -1.12 ± 0.14 |

| Sequence | self-splicing fitness (ln) (30 °C) | self-splicing fitness (ln) (37 °C) |
| --- | --- | --- |
| GCAAAGCAAUAUUACGGAAC | -1.63 ± 0.18 | -0.635 ± 0.17 |
| CAGAAGCAAUAUUACGCCGU | -3.06 ± 0.21 | -1.94 ± 0.23 |
| GAGUAGCAAUAUUACGCGAU | -2.26 ± 0.21 | -2.21 ± 0.39 |
| UGAUAGCAAUAUUACGCCAU | -2.82 ± 0.26 | -3.2 ± 0.3 |
| CCCAAGCAAUAUUACGGCGG | -3.72 ± 0.23 | -2.08 ± 0.21 |
| AUACAGCAAUAUUACGUCCU | -0.382 ± 0.073 | 1.06 ± 0.096 |
| AUAUAGCAAUAUUACGGACC | -0.93 ± 0.22 | -0.283 ± 0.24 |
| AUUGAGCAAUAUUACGCUCA | – | -1.62 ± 0.4 |
| CGGUAGCAAUAUUACGAGAU | -3.19 ± 0.3 | -2.32 ± 0.28 |
| AGGAAGCAAUAUUACGCUAG | -2.44 ± 0.42 | – |
| UGACAGCAAUAUUACGUCCG | -0.00105 ± 0.12 | -0.342 ± 0.13 |
| GCUUAGCAAUAUUACGUUCG | -0.857 ± 0.095 | -0.972 ± 0.11 |
| AUGAAGCAAUAUUACGCCAC | -0.249 ± 0.39 | -1.9 ± 0.41 |
| AUUGAGCAAUAUUACGCUUG | -2.91 ± 0.18 | -0.989 ± 0.18 |
| UAAAAGCAAUAUUACGGGUG | -0.67 ± 0.042 | -0.46 ± 0.061 |
| GAUUAGCAAUAUUACGAGGU | -3.27 ± 0.18 | -3.89 ± 0.33 |
| UAAAAGCAAUAUUACGGGGG | -2.62 ± 0.19 | -2.43 ± 0.24 |
| UGAGAGCAAUAUUACGGUCA | -0.647 ± 0.1 | -0.589 ± 0.13 |
| GACCAGCAAUAUUACGUGGA | -1.67 ± 0.078 | -0.914 ± 0.081 |
| ACGUAGCAAUAUUACGCGCG | -1.28 ± 0.15 | -0.103 ± 0.18 |
| UCCCAGCAAUAUUACGACCA | -1.65 ± 0.13 | -1.06 ± 0.23 |
| AGUGAGCAAUAUUACGUUGU | -4.07 ± 0.19 | -1.78 ± 0.14 |
| UUCUAGCAAUAUUACGUGGC | -3.1 ± 0.24 | – |
| AACGAGCAAUAUUACGGUUC | -2.87 ± 0.18 | -2.09 ± 0.19 |
| UUACAGCAAUAUUACGGAGC | -3.42 ± 0.38 | -1.79 ± 0.35 |
